Measurements published in article PMC11077089, “Molecular basis of A. thaliana KEOPS complex in biosynthesizing tRNA t6A”.
Substitutions are numbered along the chain they refer to.

Key:
Experiment in all cases: EMSA; 1:5 RNA:protein; MST: 20 mM PBS pH 7.5, 300 mM NaCl, 0.05% Tween 20, 25 C, 50 nM RNA; EMSA: 20 mM Tris-HCl pH 7.5, 300 mM NaCl, 5 mM b-mercaptoethanol, 20% glycerol, agarose gel in Tris-glycine pH 8.0 (8.5 for FAM-RNA), 4 C
Settings in all cases: protein: recombinant;recombinant;recombinant;recombinant; tags: ;none (6His on partner CGI121);6His (C-term);6His (C-term); chain copies: 2;2;2;2; label: 5' 6-FAM; tRNA cloverleaf
[1] = target: T1, KAE1 A231G;BUD32;CGI121;PCC1 (Arabidopsis thaliana;Arabidopsis …, UniProt O49653;Q94K14;Q6NMZ4;Q8GWD7 1-353;1-226;1-172;1-96, A231G|||)
T1 sequence 1: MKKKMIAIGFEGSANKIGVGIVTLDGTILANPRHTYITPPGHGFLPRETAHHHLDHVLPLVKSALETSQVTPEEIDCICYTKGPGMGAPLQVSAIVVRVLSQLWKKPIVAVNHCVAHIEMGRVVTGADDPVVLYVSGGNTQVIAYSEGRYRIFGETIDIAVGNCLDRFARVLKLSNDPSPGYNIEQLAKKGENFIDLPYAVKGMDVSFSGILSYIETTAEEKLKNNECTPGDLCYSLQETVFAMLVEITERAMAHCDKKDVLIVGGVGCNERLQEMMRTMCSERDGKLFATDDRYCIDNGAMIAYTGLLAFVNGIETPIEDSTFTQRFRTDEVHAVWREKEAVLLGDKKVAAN
T1 sequence 2: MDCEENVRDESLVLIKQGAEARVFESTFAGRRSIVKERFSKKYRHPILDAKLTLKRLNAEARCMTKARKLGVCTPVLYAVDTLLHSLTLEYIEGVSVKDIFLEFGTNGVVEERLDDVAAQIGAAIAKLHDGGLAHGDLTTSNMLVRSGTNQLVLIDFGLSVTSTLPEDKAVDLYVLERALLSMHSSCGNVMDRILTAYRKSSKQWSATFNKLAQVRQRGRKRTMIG
T1 sequence 3: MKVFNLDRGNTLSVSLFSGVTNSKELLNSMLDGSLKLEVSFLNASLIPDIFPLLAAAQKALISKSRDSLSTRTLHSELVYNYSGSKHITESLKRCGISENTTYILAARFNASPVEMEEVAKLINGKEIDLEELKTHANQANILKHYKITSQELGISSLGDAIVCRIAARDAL
T1 sequence 4: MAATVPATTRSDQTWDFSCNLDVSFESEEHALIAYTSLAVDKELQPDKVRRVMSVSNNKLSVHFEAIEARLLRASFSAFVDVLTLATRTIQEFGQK

[2] = target: T2, KAE1 H117A;BUD32;CGI121;PCC1 (Arabidopsis thaliana;Arabidopsis …, UniProt O49653;Q94K14;Q6NMZ4;Q8GWD7 1-353;1-226;1-172;1-96, H117A|||)
T2 sequence 1: T1 sequence 1 with H117A, G231A
T2 sequence 2: T1 sequence 2
T2 sequence 3: T1 sequence 3
T2 sequence 4: T1 sequence 4

[3] = target: T3, KAE1 K202R;BUD32;CGI121;PCC1 (Arabidopsis thaliana;Arabidopsis …, UniProt O49653;Q94K14;Q6NMZ4;Q8GWD7 1-353;1-226;1-172;1-96, K202R|||)
T3 sequence 1: T1 sequence 1 with K202R, G231A
T3 sequence 2: T1 sequence 2
T3 sequence 3: T1 sequence 3
T3 sequence 4: T1 sequence 4

Measured: binding result

B1: 5'-6FAM-tRNAArgCCU (structured_RNA)
RNA: GCGCCUGUAGCUCAGUGGAUAGAGCGUCUGUUUCCUAAGCAGAAGGUCGUAGGUUCGACCCCUACCUGGCGCGCCA
binds: [1] | [2] | [3]
